Test results as given in patent US20200002421A1 (AbbVie / Abbott, published 2020).

B1: chAb13 (antibody, IgG1, V domains shown)
VH: DVQLQESGPDLVKPSQSLSLTCTVTGYSITSGYSWHWIRQFPGNKLEWMGYIHSSGSTNYNPSLKSRISINRDTSKNQFFLQLNSVTTEDTATYYCAGYDDYFEYWGQGTTLTVSS
VL: DIVMTQSQKFMSTSVGDRVSVTCKASQNVGFNVAWYQQKPGQSPKALIYSASYRYSGVPDRFTGSGSGTDFTLTISNVQSEDLAEYFCQQYNSYPFTFGSGTKLEIK
notes: chimeric, huIgG1/k
B2: huAb13v1-WD (antibody, human IgG1, kappa, L234A L235A, V domains shown)
VH: EVQLQESGPGLVKPSETLSLTCAVTGYSITSGYSWHWIRQFPGNGLEWMGYIHSSGSTNYNPSLKSRISISRDTSKNQFFLKLSSVTAADTAVYYCAGYDDYFEYWGQGTTVTVSS
VL: DIQMTQSPSSLSASVGDRVTITCKASQNVGFNVAWYQQKPGKSPKALIYSASYRYSGVPSRFSGSGSGTDFTLTISSLQPEDFAEYFCQQYNWYPFTFGQGTKLEIKR
modifications: synthon WD on interchain Cys
B3: huAb13v1 (antibody, human IgG1, kappa, L234A L235A, V domains shown)
VH: EVQLQESGPGLVKPSETLSLTCAVTGYSITSGYSWHWIRQFPGNGLEWMGYIHSSGSTNYNPSLKSRISISRDTSKNQFFLKLSSVTAADTAVYYCAGYDDYFEYWGQGTTVTVSS
VL: DIQMTQSPSSLSASVGDRVTITCKASQNVGFNVAWYQQKPGKSPKALIYSASYRYSGVPSRFSGSGSGTDFTLTISSLQPEDFAEYFCQQYNWYPFTFGQGTKLEIKR
notes: Ig gamma-1 mutant / kappa
B4: huAb13v1-ZZ (antibody, human IgG1, kappa, L234A L235A, V domains shown)
VH: EVQLQESGPGLVKPSETLSLTCAVTGYSITSGYSWHWIRQFPGNGLEWMGYIHSSGSTNYNPSLKSRISISRDTSKNQFFLKLSSVTAADTAVYYCAGYDDYFEYWGQGTTVTVSS
VL: DIQMTQSPSSLSASVGDRVTITCKASQNVGFNVAWYQQKPGKSPKALIYSASYRYSGVPSRFSGSGSGTDFTLTISSLQPEDFAEYFCQQYNWYPFTFGQGTKLEIKR
modifications: synthon ZZ on interchain Cys
B5: huAb13v5 (antibody, V domains shown)
VH: EVQLQESGPGLVKPSETLSLTCAVTGYSITSGYSWHWIRQFPGNGLEWMGYIHSSGSTNYNPSLKSRISISRDTSKNQFFLKLSSVTAADTAVYYCAGYDDYFEYWGQGTTVTVSS
VL: DIQMTQSPSSLSASVGDRVTITCKASQNVGFNVAWYQQKPGKAPKLLIYSASYRYSGVPSRFSGSGSGTDFTLTISSLQPEDFATYYCQQYNWYPFTFGQGTKLEIK
B6: huAb13v1-LB (antibody, human IgG1, kappa, L234A L235A, V domains shown)
VH: EVQLQESGPGLVKPSETLSLTCAVTGYSITSGYSWHWIRQFPGNGLEWMGYIHSSGSTNYNPSLKSRISISRDTSKNQFFLKLSSVTAADTAVYYCAGYDDYFEYWGQGTTVTVSS
VL: DIQMTQSPSSLSASVGDRVTITCKASQNVGFNVAWYQQKPGKSPKALIYSASYRYSGVPSRFSGSGSGTDFTLTISSLQPEDFAEYFCQQYNWYPFTFGQGTKLEIKR
modifications: synthon LB on interchain Cys
B7: huAb13v1-ZT (antibody, human IgG1, kappa, L234A L235A, V domains shown)
VH: EVQLQESGPGLVKPSETLSLTCAVTGYSITSGYSWHWIRQFPGNGLEWMGYIHSSGSTNYNPSLKSRISISRDTSKNQFFLKLSSVTAADTAVYYCAGYDDYFEYWGQGTTVTVSS
VL: DIQMTQSPSSLSASVGDRVTITCKASQNVGFNVAWYQQKPGKSPKALIYSASYRYSGVPSRFSGSGSGTDFTLTISSLQPEDFAEYFCQQYNWYPFTFGQGTKLEIKR
modifications: synthon ZT on interchain Cys
B8: huAb13v6 (antibody, V domains shown)
VH: EVQLQESGPGLVKPSETLSLTCAVTGYSITSGYSWHWIRQFPGNGLEWMGYIHSSGSTNYNPSLKSRISISRDTSKNQFFLKLSSVTAADTAVYYCAGYDDYFEYWGQGTTVTVSS
VL: DIQMTQSPSSLSASVGDRVTITCKASQNVGFNVAWYQQKPGKAPKLLIYSASYRYSGVPSRFSGSGSGTDFTLTISSLQPEDFATYFCQQYNWYPFTFGQGTKLEIK
B9: huAb3v2 (antibody, V domains shown)
VH: EVQLVQSGAEVKKPGSSVKVSCKASGYTFSSYWMHWVRQAPGQGLEWIGLIHPDSGSTNYNEMFKNRATLTVDRSTSTAYMELSSLRSEDTAVYYCAGGGRLYFDYWGQGTTVTVSS
VL: DIVMTQSPLSLPVTPGEPASISCRSSQSLVHSNGDTYLRWYLQKPGQSPQLLIYKVSNRFSGVPDRFSGSGSGTDFTLKISRVEAEDVGVYYCSQSTHVPYTFGGGTKVEIK
B10: huAb3v2.2 (antibody, V domains shown)
VH: EVQLVQSGAEVKKPGSSVKVSCKASGYTFSSYWMHWVRQAPGQGLEWIGLIHPWSGSTNYNEMFKNRATLTVDRSTSTAYMELSSLRSEDTAVYYCAGGGRLYFDYWGQGTTVTVSS
VL: DIVMTQSPLSLPVTPGEPASISCRSSQSLVHSNRDTYLRWYLQKPGQSPQLLIYKVSNRFSGVPDRFSGSGSGTDFTLKISRVEAEDVGVYYCSQSTHVPYTFGGGTKVEIK
B11: huAb3v2.5 (antibody, human IgG1, kappa, L234A L235A, V domains shown)
VH: EVQLVQSGAEVKKPGSSVKVSCKASGYTFSSYWMHWVRQAPGQGLEWIGLIHPESGSTNYNEMFKNRATLTVDRSTSTAYMELSSLRSEDTAVYYCAGGGRLYFDYWGQGTTVTVSS
VL: DIVMTQSPLSLPVTPGEPASISCRSSQSLVHSNRDTYLRWYLQKPGQSPQLLIYKVSNRFSGVPDRFSGSGSGTDFTLKISRVEAEDVGVYYCSQSTHVPYTFGGGTKVEIKR
notes: Ig gamma-1 mutant / kappa
B12: huAb3v2.6 (antibody, human IgG1, kappa, L234A L235A, V domains shown)
VH: EVQLVQSGAEVKKPGSSVKVSCKASGYTFSSYWMHWVRQAPGQGLEWIGLIHPESGSTNYNEMFKNRATLTVDRSTSTAYMELSSLRSEDTAVYYCAGGGRLYFDYWGQGTTVTVSS
VL: DIVMTQSPLSLPVTPGEPASISCRSSQSLVHSNQDTYLRWYLQKPGQSPQLLIYKVSNRFSGVPDRFSGSGSGTDFTLKISRVEAEDVGVYYCSQSTHVPYTFGGGTKVEIKR
notes: Ig gamma-1 mutant / kappa
B13: huAb3v2.3 (antibody, V domains shown)
VH: EVQLVQSGAEVKKPGSSVKVSCKASGYTFSSYWMHWVRQAPGQGLEWIGLIHPWSGSTNYNEMFKNRATLTVDRSTSTAYMELSSLRSEDTAVYYCAGGGRLYFDYWGQGTTVTVSS
VL: DIVMTQSPLSLPVTPGEPASISCRSSQSLVHSNQDTYLRWYLQKPGQSPQLLIYKVSNRFSGVPDRFSGSGSGTDFTLKISRVEAEDVGVYYCSQSTHVPYTFGGGTKVEIK
B14: huAb3v2.9 (antibody, V domains shown)
VH: EVQLVQSGAEVKKPGSSVKVSCKASGYTFSSYWMHWVRQAPGQGLEWIGLIHPISGSTNYNEMFKNRATLTVDRSTSTAYMELSSLRSEDTAVYYCAGGGRLYFDYWGQGTTVTVSS
VL: DIVMTQSPLSLPVTPGEPASISCRSSQSLVHSNQDTYLRWYLQKPGQSPQLLIYKVSNRFSGVPDRFSGSGSGTDFTLKISRVEAEDVGVYYCSQSTHVPYTFGGGTKVEIK
B15: huAb3v2.8 (antibody, V domains shown)
VH: EVQLVQSGAEVKKPGSSVKVSCKASGYTFSSYWMHWVRQAPGQGLEWIGLIHPISGSTNYNEMFKNRATLTVDRSTSTAYMELSSLRSEDTAVYYCAGGGRLYFDYWGQGTTVTVSS
VL: DIVMTQSPLSLPVTPGEPASISCRSSQSLVHSNRDTYLRWYLQKPGQSPQLLIYKVSNRFSGVPDRFSGSGSGTDFTLKISRVEAEDVGVYYCSQSTHVPYTFGGGTKVEIK

Legend:
[1] = target: T1, Cynomolgous B7-H3 on cells (cynomolgus); assay: FACS
T1 construct: whole, on cells; also called cyno B7-H3; cyB7-H3
Procedure: (§1) Cells were harvested from flasks when approximately 80% confluent using Gibco® Cell Dissociation Buffer. Cells were washed once in PBS/1% FBS (FACS buffer) then resuspended at 2.5×10⁶ cells/mL in FACS buffer. 100 μL of cells/well were added to a round bottom 96-well plate. 10 μL of a 10× concentration of mAb/ADC (final concentrations are indicated the figures). Wells were washed twice with FACS buffer and resuspended in 50 μL of secondary Ab (AlexaFluor 488) diluted in FACS buffer. The plate was incubated at 4° C. for one hour and washed twice with FACS buffer. Cells were resuspended in 100 μL of PBS/1% formaldehyde and analyzed on a Becton Dickinson LSRII flow cytometer. Data was analyzed using WinList flow cytometry analysis software.
(§2) Nine huAb13 variants described in Examples 17 and 18 were generated and tested for binding to B7-H3 by FACS (according to methods described in Example 6).

Human full length B7-H3 [2] = target: T2, Human full length B7-H3 (human, UniProt Q5ZPR3 29-534); assay: FACS
T2 construct: on 3T12 transfectants, NCI-H1650 and other cells; also called huB7-H3; hu B7-H3
T2 sequence: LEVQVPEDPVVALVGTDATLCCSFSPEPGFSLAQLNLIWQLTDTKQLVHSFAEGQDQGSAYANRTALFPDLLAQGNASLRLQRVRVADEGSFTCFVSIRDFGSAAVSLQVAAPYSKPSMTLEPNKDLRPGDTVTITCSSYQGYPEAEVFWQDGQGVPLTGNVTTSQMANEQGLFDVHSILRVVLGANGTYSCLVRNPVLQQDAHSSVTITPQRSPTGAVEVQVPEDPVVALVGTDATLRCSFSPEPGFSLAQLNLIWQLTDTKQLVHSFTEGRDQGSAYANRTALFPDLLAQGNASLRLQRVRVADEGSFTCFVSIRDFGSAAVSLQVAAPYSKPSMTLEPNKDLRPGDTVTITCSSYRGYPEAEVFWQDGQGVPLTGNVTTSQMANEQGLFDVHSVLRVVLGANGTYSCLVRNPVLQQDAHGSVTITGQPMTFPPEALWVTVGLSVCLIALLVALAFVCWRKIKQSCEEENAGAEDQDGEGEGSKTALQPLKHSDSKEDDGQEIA
Procedure: as §1, §2

[3] = target: T3, hB7-H3 (ELISA antigen of Tables 17 and 20) (human, UniProt Q5ZPR3 29-466, limits assumed); assay: ELISA; ELISA, human B7-H3; no DAR given, so unconjugated
T3 sequence: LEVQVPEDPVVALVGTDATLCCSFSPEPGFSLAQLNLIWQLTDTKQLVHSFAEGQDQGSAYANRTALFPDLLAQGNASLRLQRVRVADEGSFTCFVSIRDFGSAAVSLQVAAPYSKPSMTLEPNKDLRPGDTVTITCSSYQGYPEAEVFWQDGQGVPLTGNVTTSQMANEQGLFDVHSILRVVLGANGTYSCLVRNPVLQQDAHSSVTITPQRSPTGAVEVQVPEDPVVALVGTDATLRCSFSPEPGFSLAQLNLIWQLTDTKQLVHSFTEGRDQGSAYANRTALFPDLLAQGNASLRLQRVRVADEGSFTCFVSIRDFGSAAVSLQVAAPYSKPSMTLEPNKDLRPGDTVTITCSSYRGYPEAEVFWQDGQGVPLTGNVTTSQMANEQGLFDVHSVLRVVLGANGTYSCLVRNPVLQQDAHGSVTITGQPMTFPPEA

Human full length B7-H3 [4] = target: T2, Human full length B7-H3; assay: cell-based or functional assay
[5] = target: T3, hB7-H3 (ELISA antigen of Tables 17 and …); assay: ELISA
[6] = target: T1, Cynomolgous B7-H3 on cells; assay: FACS, 3T12 transfectants
Human full length B7-H3 [7] = target: T2, Human full length B7-H3; assay: FACS, 3T12 transfectants
[8] = target: T3, hB7-H3 (ELISA antigen of Tables 17 and …); assay: ELISA; remark: listed apart in the source

Row | Binder | EC50 [6] [nM] | EC50 (Human full length B7-H3 [7]) [nM] | EC50 [8] [nM] | other results
1 | B1 |  |  |  | EC50 [1]: 18.4 nM; EC50 (Human full length B7-H3 [2]): 6.27 nM; EC50 [3]: 0.26 nM
2 | B2 |  |  |  | EC50 nM H1650 (in vitro tumor cell cytotoxicity) (Human full length B7-H3 [4]): 0.45 nM
3 | B3 |  |  |  | EC50 [1]: 10 nM
4 | B4 |  |  |  | EC50 nM H1650 (in vitro tumor cell cytotoxicity) (Human full length B7-H3 [4]): 0.42 nM
5 | B5 |  |  |  | EC50 [1]: 10.6 nM; EC50 (Human full length B7-H3 [2]): 5.21 nM; EC50 [5]: 0.19 nM
6 | B6 |  |  |  | EC50 nM H1650 (in vitro tumor cell cytotoxicity) (Human full length B7-H3 [4]): > 133 nM
7 | B7 |  |  |  | EC50 nM H1650 (in vitro tumor cell cytotoxicity) (Human full length B7-H3 [4]): 0.3 nM
8 | B8 |  |  |  | EC50 [1]: 12.9 nM; EC50 (Human full length B7-H3 [2]): 5.83 nM; EC50 [5]: 0.14 nM
9 | B9 | 2.87 | 5.11 | 0.44 | 
10 | B10 | 3.68 | 5.29 | 0.1 | 
11 | B11 | 4.86 |  | 0.13 | 
12 | B12 | 3.31 | 5.64 | 0.09 | 
13 | B13 | 4.03 | 6.5 | 0.11 | 
14 | B14 | 4.64 | 6.16 | 0.16 | 
15 | B15 | 3.01 | 3.94 | 0.14 | 
